According to US20220143148A1, “COMPOSITIONS AND METHODS FOR MODULATING CGRP SIGNALING TO REGULATE INTESTINAL INNATE LYMPHOID CELLS” (The Broad Institute, Inc., priority 2019, published 2022):

Test system: small intestinal immune cells
Test: Droplet-based scRNA-seq of small intestinal immune cells (LP and PP), OVA vs PBS, clustering and differential expression
Assay type: in vivo, mouse
Settings: PP, cluster ID 6
Text: To comprehensively characterize small intestinal immune cells, Applicants generated scRNA-Seq profiles for 58,067 immune cells collected from lamina propria (LP) and Peyer's patch (PP) regions at steady state and after induction of a type 2 inflammatory reaction to ovalbumin (OVA) (Brandt et al., 2003) (FIGS. 1A and 8A). To ensure sufficient representation of rare cells, Applicants combined a normalization strategy—removing by flow sorting either a portion of IgD+ naïve B cells, which are the most abundant cell type in PPs, or all CD19+ and CD3+ T cells (FIG. 8B, Methods)—with profiling of a sufficiently large number of cells number (P>0.99 to recover at least 15 cells from each cluster, Methods) by massively parallel scRNA-seq (Haber et al., 2017) (Methods). Applicants obtained 36,797 and 21,270 high quality cells passing initial filtering (Methods) from PP and LP regions, respectively.
Overall, Applicants annotated 27 cell subsets across the two compartments, spanning T cells, B cells, ILCs, dendritic cells (DCs), myeloid cells and stromal cells, in frequencies ranging from 0.07% to 14%. Briefly, Applicants first partitioned the cells from the PP regions by unsupervised clustering (Methods) into 46 clusters, retained the 97% of cells that were robustly assigned cell identities in each cluster (Methods), assigned the cells from the LP regions to the 46 clusters using a classifier (Methods), and visualized the data with scvis (Ding et al., 2018), a deep generative model-based method (FIGS. 1B and 8C, Methods). Next, Applicants identified genes that were differentially expressed between the cells in each cluster and the remaining cells (Table 1, Methods), as well as between pairs of clusters (Table 2), to elucidate identities of similar cell types/states. Applicants excluded from downstream analysis clusters mostly consisting of contaminants from epithelium, likely doublets, or cells with a small number of Unique Molecular Identifiers (UMIs) (FIGS. 1C and 8D), or lacking distinct markers (Methods). Altogether, Applicants retained 27 clusters spanning 85% of the cells and each associated with distinct marker genes (FIG. 8E, Methods).
To induce allergic reaction to OVA, 6 to 7 weeks old mice were sensitized twice, two weeks apart, with 50 μg of OVA plus 1 mg of aluminum potassium sulfate adjuvant via intraperitoneal injection. Two weeks later, mice were orally administered with 50 mg of OVA on every other day for a total of five times. 1 μg of α-CGRP peptide was administered simultaneously when indicated. Mice were deprived of food for 3-4 hours in cages with wood chip bedding for limiting antigen degradation in the stomach before each intragastric challenge.
Isolation of cells from Peyer's patches (PPs). Peyer's patches (PPs) were carefully dissected from the small intestine under a stereo microscope using a fine scissor, pierced once with a fine forcep. Tissues were digested in freshly made digestion buffer (RPMI-1640 containing 100 μg/ml Liberase™ and 50 μg/ml DNase I at 37° C. on a roto-mixer. After 15 min, tissues were very gently mixed using a 1 ml pipette. The supernatant was collected and added to ice-cold MACS buffer (pH 7.4; PBS plus 2% FCS and 2 mM EDTA). Pre-warmed (37° C.) fresh digestion buffer was added to the remaining tissues. After rotation at 37° C. for 15 min, the mixture was vigorously mixed using a 1 ml pipette for 1 min. Supernatants from the two steps were combined and passed through 70 μm filters and stained for FACS (below).
Isolation of cells from the lamina propria (LP). The small intestines were opened longitudinally and washed in ice-cold PBS. For scRNA-seq, roughly 0.5 cm of fragments from each of the distal, middle and proximal regions without visible PPs were collected. Epithelial cells were dissociated by tissue rotation in pre-warmed (37° C.) PBS containing 10 mM EDTA at 37° C. for 15 min, followed by additional incubation on ice for 15 min. Tissues were then shaken vigorously. […]

B1: OVA (protein, UniProt P01012 2-386, looked up)
Ovalbumin: GSIGAASMEFCFDVFKELKVHHANENIFYCPIAIMSALAMVYLGAKDSTRTQINKVVRFDKLPGFGDSIEAQCGTSVNVHSSLRDILNQITKPNDVYSFSLASRLYAEERYPILPEYLQCVKELYRGGLEPINFQTAADQARELINSWVESQTNGIIRNVLQPSSVDSQTAMVLVNAIVFKGLWEKAFKDEDTQAMPFRVTEQESKPVQMMYQIGLFRVASMASEKMKILELPFASGTMSMLVLLPDEVSGLEQLESIINFEKLTEWTSSNVMEERKIKVYLPRMKMEEKYNLTSVLMAMGITDVFSSSANLSGISSAESLKISQAVHAAHAEINEAGREVVGSAEAGVDAASVSEEFRADHPFLFCIKHIATNAVLFFGRCVSP
5730508B09Rik percentage of expressing cells in OVA-treated group: 0.268
Ablim1 percentage of expressing cells in OVA-treated group: 0.403
Arid3a percentage of expressing cells in OVA-treated group: 0.212
Arl4a percentage of expressing cells in OVA-treated group: 0.228
Asph percentage of expressing cells in OVA-treated group: 0.377
Cdkn2d percentage of expressing cells in OVA-treated group: 0.747
Cfp percentage of expressing cells in OVA-treated group: 0.422
Ctsz percentage of expressing cells in OVA-treated group: 0.97
Fcer1g percentage of expressing cells in OVA-treated group: 0.94
Gadd45b percentage of expressing cells in OVA-treated group: 0.342
Gatad1 percentage of expressing cells in OVA-treated group: 0.34
Gnai2 percentage of expressing cells in OVA-treated group: 0.932
Grb2 percentage of expressing cells in OVA-treated group: 0.614
H2-DMa percentage of expressing cells in OVA-treated group: 0.878
Hnrnpa3 percentage of expressing cells in OVA-treated group: 0.851
Irf4 percentage of expressing cells in OVA-treated group: 0.256
Itgb7 percentage of expressing cells in OVA-treated group: 0.669
Klf3 percentage of expressing cells in OVA-treated group: 0.125
Klk1b27 percentage of expressing cells in OVA-treated group: 0.974
Lifr percentage of expressing cells in OVA-treated group: 0.595
Map3k1 percentage of expressing cells in OVA-treated group: 0.346
Mark3 percentage of expressing cells in OVA-treated group: 0.139
Net1 percentage of expressing cells in OVA-treated group: 0.53
Orai1 percentage of expressing cells in OVA-treated group: 0.274
Paqr5 percentage of expressing cells in OVA-treated group: 0.52
Pde4b percentage of expressing cells in OVA-treated group: 0.177
Pdia3 percentage of expressing cells in OVA-treated group: 0.844
Pink1 percentage of expressing cells in OVA-treated group: 0.282
Pten percentage of expressing cells in OVA-treated group: 0.429
Ptprcap percentage of expressing cells in OVA-treated group: 0.941
Rab7b percentage of expressing cells in OVA-treated group: 0.223
Rsrp1 percentage of expressing cells in OVA-treated group: 0.754
Sema4b percentage of expressing cells in OVA-treated group: 0.531
Sertad1 percentage of expressing cells in OVA-treated group: 0.12
Snrnp70 percentage of expressing cells in OVA-treated group: 0.43
Tmem50a percentage of expressing cells in OVA-treated group: 0.854
Tmem59 percentage of expressing cells in OVA-treated group: 0.833
Tmem86a percentage of expressing cells in OVA-treated group: 0.204
Tsix percentage of expressing cells in OVA-treated group: 0.23
Txndc5 percentage of expressing cells in OVA-treated group: 0.699
5730508B09Rik LN (average fold change) (OVA vs PBS): −0.218
Ablim1 LN (average fold change) (OVA vs PBS): −0.197
Arid3a LN (average fold change) (OVA vs PBS): −0.329
Arl4a LN (average fold change) (OVA vs PBS): −0.276
Asph LN (average fold change) (OVA vs PBS): −0.195
Cdkn2d LN (average fold change) (OVA vs PBS): 0.244
Cfp LN (average fold change) (OVA vs PBS): 0.312
Ctsz LN (average fold change) (OVA vs PBS): 0.156
Fcer1g LN (average fold change) (OVA vs PBS): 0.160
Gadd45b LN (average fold change) (OVA vs PBS): −0.220
Gatad1 LN (average fold change) (OVA vs PBS): −0.199
Gnai2 LN (average fold change) (OVA vs PBS): −0.175
Grb2 LN (average fold change) (OVA vs PBS): −0.222
H2-DMa LN (average fold change) (OVA vs PBS): 0.190
Hnrnpa3 LN (average fold change) (OVA vs PBS): 0.164
Irf4 LN (average fold change) (OVA vs PBS): −0.248
Itgb7 LN (average fold change) (OVA vs PBS): 0.238
Klf3 LN (average fold change) (OVA vs PBS): −0.428
Klk1b27 LN (average fold change) (OVA vs PBS): 0.170
Lifr LN (average fold change) (OVA vs PBS): 0.265
Map3k1 LN (average fold change) (OVA vs PBS): −0.227
Mark3 LN (average fold change) (OVA vs PBS): −0.383
Net1 LN (average fold change) (OVA vs PBS): 0.285
Orai1 LN (average fold change) (OVA vs PBS): −0.245
Paqr5 LN (average fold change) (OVA vs PBS): 0.279
Pde4b LN (average fold change) (OVA vs PBS): −0.282
Pdia3 LN (average fold change) (OVA vs PBS): 0.157
Pink1 LN (average fold change) (OVA vs PBS): −0.291
Pten LN (average fold change) (OVA vs PBS): −0.226
Ptprcap LN (average fold change) (OVA vs PBS): 0.159
Rab7b LN (average fold change) (OVA vs PBS): −0.285
Rsrp1 LN (average fold change) (OVA vs PBS): 0.195
Sema4b LN (average fold change) (OVA vs PBS): 0.221
Sertad1 LN (average fold change) (OVA vs PBS): −0.396
